Molecular target: the molecule itself
Test: SEC

B1: Mycobacterium smegmatis mycothiol S-transferase (MSMEG_0887), native enzyme (enzyme, UniProt A0QQV2 1-185, looked up)
chain: MTAREPTTKTSTGSVNESAAVRELLRDAFTRLIEHVDDLTDGLTEEVSSYRPTPEANSIAWLLWHSARCQDMQLCDIAGVEQVWTRDGWIDRFDLGLPPDDIGYGHSPEEVAKVQAPAELLAGYYHAVHKVTLEYIATVTPGEMDRVVDTNWNPPVTASARLISIIDDCAQHLGQAAYLRGIIPR
Question: B1 was tested. Which “stoichiometry N” value did it give?
Answer: The value was 2.
